Holding throughout (experiment): SPR; TNFSF member immobilised on ProteOn GLH chip by amine coupling (up to 5,000-14,500 RU); S100 analyte 62.5 nM to 16 uM, 300 s at 30 uL/min; 25°C; 10 mM HEPES-NaOH, 150 mM NaCl, 0.05% TWEEN 20, 1 mM CaCl2, pH 7.4; heterogeneous ligand, one-site or two-state model; constants averaged over analyte concentrations (SD, n = 2-9)
Common to all, as to details: both partners purified

Assay [1] concerns the target T1, activation-inducible TNF-related ligand (TNF ligand superfamily member 18), recombinant soluble form (human, UniProt Q9UNG2 49-177).
T1 construct: also called AITRL
T1 sequence (looked up): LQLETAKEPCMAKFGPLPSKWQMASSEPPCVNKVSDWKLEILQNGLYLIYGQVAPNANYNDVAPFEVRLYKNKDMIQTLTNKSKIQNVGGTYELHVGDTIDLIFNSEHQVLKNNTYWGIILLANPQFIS

Assay [2] deals with T2, TNF-related weak inducer of apoptosis (TNF ligand superfamily member 12), recombinant soluble form (human, UniProt O43508 94-249).
T2 construct: TNF-related weak inducer of apoptosis (TNF ligand superfamily member 12), human, recombinant soluble form; also called TWEAK
T2 sequence (looked up): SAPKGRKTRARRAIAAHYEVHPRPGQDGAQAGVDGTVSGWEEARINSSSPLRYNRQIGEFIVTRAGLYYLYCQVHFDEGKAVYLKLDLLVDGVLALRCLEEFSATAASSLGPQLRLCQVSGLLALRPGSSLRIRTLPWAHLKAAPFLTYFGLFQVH

Assay [3] has as its target T3, A proliferation-inducing ligand (TNF ligand superfamily member 13), recombinant soluble form (human, UniProt O75888 105-250).
T3 construct: A proliferation-inducing ligand (TNF ligand superfamily member 13), human, recombinant soluble form; also called APRIL
T3 sequence (looked up): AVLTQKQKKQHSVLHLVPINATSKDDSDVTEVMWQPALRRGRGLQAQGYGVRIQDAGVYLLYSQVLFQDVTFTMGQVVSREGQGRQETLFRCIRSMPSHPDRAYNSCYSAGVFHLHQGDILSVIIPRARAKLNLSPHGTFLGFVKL

Assay [4] addresses T4, vascular endothelial cell growth inhibitor (TNF ligand superfamily member 15), recombinant soluble form (human, UniProt O95150 72-251).
T4 construct: also called VEGI
T4 sequence (looked up): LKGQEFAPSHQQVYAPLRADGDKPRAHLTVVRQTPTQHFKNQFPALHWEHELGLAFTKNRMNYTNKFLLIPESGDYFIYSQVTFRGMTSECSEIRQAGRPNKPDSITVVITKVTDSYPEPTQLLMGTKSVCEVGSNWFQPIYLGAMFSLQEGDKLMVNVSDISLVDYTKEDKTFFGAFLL

One may read the Kd as the equilibrium constant for the complex coming apart. Usually koff stands for the rate constant with which the complex falls apart.

B1: recombinant tag-free human S100B (natural protein, UniProt P04271 1-92, looked up)
chain: MSELEKAMVALIDVFHQYSGREGDKHKLKKSELKELINNELSHFLEEIKEQEVVDKVMETLDNDGDGECDFQEFMAFVAMVTTACHEFFEHE
notes: S100B, human, recombinant, tag-free; Tag-free
B1: in assay [1], the Kd stood at 12000 nM and the koff was 0.00626 s⁻¹.

B2: recombinant tag-free human S100A5 (natural protein, UniProt P33763 1-92, looked up)
chain: METPLEKALTTMVTTFHKYSGREGSKLTLSRKELKELIKKELCLGEMKESSIDDLMKSLDKNSDQEIDFKEYSVFLTMLCMAYNDFFLEDNK
notes: S100A5, human, recombinant, tag-free; Tag-free
For B2, the Kd in assay [2] was 75.7 nM; in assay [3] it was 11 nM; in assay [1], 409 nM. For the same molecule, the dissociation rate constant (koff) in assay [2] came to 3.29e-05 s⁻¹; in assay [3], 4.85e-06 s⁻¹; in assay [1], 0.000275 s⁻¹.

B3: recombinant tag-free human S100P (natural protein, UniProt P25815 1-95, looked up)
chain: MTELETAMGMIIDVFSRYSGSEGSTQTLTKGELKVLMEKELPGFLQSGKDKDAVDKLLKDLDANGDAQVDFSEFIVFVAAITSACHKYFEKAGLK
notes: S100P, human, recombinant, tag-free; Tag-free
With B3, in assay [4], the Kd was 11100 nM and the koff came out at 0.0123 s⁻¹.

B4: recombinant tag-free human S100A2 (natural protein)
chain: not shown
notes: S100A2, human, recombinant, tag-free; Tag-free
Regarding B4, in assay [3], the Kd was determined as 684 nM and the koff came to 0.00122 s⁻¹.

For the origin of these results see article PMC13623127 (PLOS One, 2026).
